Molecular target: T1, hTUT1_ZF-RRM (Homo sapiens, UniProt Q9H6E5 1-140)
T1 sequence: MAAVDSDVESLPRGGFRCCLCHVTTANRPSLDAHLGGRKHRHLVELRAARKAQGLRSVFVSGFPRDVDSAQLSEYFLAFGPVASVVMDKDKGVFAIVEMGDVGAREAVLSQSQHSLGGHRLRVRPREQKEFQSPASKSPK
Experiment: EMSA; 10 mM MgCl2; EMSA: 50 mM Tris-Cl pH 8.5, 100 mM NaCl, 10 mM MgCl2, 10 mM beta-mercaptoethanol, 10% glycerol, room temperature 15 min; RNA 50 nM (U6) or 100 nM (U6_mini); protein 0-1000 nM
Conditions: protein: recombinant; tags: His tag implied (pET22b, Ni-NTA); hairpin with 5' single strand

B1: U6_mini (structured_RNA)
RNA: GGAUACUAAAAUUGGAACGAUACAGAGUUCGCUCGUGAAGCGUUCCAUAUUUU
Kd: 204 ± 41 nM

From paper PMC10415362, “Mechanism of U6 snRNA oligouridylation by human TUT1”
